T1: mExoS peptide (C-terminal region of exoenzyme S)
T1 chain: QGLLDALDLAS

T2: dT14-3-3_PKA/PKB, unphosphorylated (Tobacco | )
T2 chain: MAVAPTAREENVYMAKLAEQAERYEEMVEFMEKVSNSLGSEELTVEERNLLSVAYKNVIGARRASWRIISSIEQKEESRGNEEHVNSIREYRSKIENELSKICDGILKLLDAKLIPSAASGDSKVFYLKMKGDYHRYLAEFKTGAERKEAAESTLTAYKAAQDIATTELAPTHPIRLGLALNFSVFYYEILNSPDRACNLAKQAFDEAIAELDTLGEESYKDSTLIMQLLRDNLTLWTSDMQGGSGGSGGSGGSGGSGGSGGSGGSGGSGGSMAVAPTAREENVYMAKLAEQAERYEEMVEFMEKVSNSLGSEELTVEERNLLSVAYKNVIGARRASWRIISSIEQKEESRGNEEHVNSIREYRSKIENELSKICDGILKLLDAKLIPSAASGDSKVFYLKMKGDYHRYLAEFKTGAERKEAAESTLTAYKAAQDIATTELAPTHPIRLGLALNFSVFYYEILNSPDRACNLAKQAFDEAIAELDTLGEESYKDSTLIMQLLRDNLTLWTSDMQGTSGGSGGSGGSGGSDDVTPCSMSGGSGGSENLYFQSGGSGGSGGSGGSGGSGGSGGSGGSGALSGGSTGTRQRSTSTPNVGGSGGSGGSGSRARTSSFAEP

T3: dT14-3-3_biPKA, unphosphorylated (Tobacco | )
T3 chain: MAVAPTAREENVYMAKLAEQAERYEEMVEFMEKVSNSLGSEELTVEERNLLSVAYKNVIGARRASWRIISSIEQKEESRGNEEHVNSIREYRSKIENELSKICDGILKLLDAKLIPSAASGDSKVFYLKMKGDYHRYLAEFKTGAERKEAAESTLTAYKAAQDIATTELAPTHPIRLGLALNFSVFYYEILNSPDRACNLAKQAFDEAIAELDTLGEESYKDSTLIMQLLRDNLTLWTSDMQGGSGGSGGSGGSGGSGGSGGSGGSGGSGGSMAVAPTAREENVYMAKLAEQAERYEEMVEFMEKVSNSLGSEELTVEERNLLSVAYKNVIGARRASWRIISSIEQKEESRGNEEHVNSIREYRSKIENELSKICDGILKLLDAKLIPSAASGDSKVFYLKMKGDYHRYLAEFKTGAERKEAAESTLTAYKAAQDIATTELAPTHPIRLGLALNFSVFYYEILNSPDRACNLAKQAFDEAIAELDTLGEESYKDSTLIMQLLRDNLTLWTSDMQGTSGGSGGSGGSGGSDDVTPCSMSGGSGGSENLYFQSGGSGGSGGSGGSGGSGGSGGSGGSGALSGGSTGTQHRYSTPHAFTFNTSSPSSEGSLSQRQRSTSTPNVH

T4: dimeric Tobacco 14-3-3 scaffold (Tobacco)
T4 chain: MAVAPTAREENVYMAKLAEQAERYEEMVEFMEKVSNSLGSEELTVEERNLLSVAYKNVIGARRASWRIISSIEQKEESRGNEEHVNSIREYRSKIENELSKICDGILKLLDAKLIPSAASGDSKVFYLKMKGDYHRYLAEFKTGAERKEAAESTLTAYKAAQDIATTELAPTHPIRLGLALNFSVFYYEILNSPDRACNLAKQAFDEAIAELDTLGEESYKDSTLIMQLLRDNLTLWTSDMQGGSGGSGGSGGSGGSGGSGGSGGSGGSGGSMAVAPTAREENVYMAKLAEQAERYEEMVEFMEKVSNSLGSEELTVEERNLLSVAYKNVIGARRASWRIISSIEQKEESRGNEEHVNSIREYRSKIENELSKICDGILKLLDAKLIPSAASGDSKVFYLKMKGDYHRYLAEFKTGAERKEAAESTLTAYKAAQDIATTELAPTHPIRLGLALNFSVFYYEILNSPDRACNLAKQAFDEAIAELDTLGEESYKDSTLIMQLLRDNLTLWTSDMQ

T5: dT14-3-3_PKA/CHK1, unphosphorylated (Tobacco | )
T5 chain: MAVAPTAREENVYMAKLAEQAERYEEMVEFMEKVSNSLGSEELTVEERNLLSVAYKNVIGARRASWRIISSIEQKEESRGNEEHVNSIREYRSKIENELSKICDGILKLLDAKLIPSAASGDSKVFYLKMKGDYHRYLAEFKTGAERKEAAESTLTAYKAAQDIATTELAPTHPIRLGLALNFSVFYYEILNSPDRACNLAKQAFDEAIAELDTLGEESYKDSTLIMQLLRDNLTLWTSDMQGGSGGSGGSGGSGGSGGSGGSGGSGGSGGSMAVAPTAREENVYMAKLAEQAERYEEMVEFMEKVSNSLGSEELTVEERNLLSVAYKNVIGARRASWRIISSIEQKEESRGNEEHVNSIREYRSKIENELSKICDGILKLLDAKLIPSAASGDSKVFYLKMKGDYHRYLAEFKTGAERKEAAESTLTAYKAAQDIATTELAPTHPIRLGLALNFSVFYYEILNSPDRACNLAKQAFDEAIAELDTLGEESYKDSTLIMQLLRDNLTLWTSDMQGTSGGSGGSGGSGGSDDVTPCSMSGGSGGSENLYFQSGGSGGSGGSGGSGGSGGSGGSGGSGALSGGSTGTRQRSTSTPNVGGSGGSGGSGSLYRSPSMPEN

T6: dT14-3-3_biCHK1, unphosphorylated (Tobacco | )
T6 chain: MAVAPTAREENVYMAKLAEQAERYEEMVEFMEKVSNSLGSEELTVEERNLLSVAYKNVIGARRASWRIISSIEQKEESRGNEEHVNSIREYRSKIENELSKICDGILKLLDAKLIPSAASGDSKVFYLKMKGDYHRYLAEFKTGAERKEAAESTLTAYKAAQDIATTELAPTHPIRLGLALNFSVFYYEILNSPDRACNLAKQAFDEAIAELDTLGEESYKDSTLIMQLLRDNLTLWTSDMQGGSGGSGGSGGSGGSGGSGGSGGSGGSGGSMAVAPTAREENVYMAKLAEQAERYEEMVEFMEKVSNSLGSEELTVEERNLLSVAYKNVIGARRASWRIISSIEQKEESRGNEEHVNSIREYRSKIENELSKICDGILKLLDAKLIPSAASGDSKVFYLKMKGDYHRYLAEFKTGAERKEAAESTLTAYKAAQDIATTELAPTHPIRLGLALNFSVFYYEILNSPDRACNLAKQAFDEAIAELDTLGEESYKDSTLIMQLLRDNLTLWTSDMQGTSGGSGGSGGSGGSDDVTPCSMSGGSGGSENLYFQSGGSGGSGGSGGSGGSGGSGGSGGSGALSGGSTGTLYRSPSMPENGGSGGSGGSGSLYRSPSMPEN

T7: dT14-3-3_biPKB, unphosphorylated (Tobacco | )
T7 chain: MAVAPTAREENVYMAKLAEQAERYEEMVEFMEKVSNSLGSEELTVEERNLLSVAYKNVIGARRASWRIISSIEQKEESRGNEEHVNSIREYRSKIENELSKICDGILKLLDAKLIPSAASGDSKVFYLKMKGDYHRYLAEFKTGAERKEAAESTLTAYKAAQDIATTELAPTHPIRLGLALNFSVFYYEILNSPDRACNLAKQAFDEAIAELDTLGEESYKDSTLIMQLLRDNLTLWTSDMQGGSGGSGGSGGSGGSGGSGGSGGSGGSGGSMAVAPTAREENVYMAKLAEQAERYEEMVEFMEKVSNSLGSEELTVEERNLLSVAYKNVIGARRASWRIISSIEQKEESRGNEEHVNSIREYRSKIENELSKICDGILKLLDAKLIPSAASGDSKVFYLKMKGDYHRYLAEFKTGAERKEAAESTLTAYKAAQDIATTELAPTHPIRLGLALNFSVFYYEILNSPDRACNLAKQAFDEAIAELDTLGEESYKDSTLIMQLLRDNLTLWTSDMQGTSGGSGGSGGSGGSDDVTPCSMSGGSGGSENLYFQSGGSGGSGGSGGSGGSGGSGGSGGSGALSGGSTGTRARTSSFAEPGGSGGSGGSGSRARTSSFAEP

T8: dT14-3-3_PKB/CHK1, unphosphorylated (Tobacco | )
T8 chain: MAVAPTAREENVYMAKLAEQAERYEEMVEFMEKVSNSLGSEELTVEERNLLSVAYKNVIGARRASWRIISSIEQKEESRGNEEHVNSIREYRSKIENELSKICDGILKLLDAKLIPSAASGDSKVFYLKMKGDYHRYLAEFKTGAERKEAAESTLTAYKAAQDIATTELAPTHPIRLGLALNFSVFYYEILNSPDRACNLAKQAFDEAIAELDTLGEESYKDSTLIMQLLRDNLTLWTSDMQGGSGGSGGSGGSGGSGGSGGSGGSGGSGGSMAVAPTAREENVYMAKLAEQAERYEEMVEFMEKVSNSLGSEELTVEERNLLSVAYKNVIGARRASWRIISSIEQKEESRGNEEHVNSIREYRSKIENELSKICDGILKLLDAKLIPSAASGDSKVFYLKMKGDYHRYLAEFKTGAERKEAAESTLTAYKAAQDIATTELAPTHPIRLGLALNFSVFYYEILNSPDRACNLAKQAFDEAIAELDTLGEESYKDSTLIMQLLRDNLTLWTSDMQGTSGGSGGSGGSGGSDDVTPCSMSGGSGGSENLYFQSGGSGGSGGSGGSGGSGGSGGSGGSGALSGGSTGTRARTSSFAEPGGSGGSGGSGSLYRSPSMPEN


Legend:
[1] = biological target: T1, mExoS peptide (C-terminal region of …); assay: fluorescence polarisation
[2] = biological target: T2, dT14-3-3_PKA/PKB, unphosphorylated; assay: FP
[3] = biological target: T3, dT14-3-3_biPKA, unphosphorylated; assay: FP
[4] = biological target: T4, dimeric Tobacco 14-3-3 scaffold; assay: FP
[5] = biological target: T5, dT14-3-3_PKA/CHK1, unphosphorylated; assay: FP
[6] = biological target: T6, dT14-3-3_biCHK1, unphosphorylated; assay: FP
[7] = biological target: T7, dT14-3-3_biPKB, unphosphorylated; assay: FP
[8] = biological target: T8, dT14-3-3_PKB/CHK1, unphosphorylated; assay: FP

Binder	fold decrease in binding affinity relative to the unphosphorylated state [1] [fold]	Kd [2] [µM]	Kd [3] [µM]	Kd [4] [µM]	Kd [5] [µM]	Kd [6] [µM]	Kd [7] [µM]	Kd [8] [µM]
dT14-3-3_biPKA, phosphorylated by PKA (protein, modifications not checked) MAVAPTAREENVYMAKLAEQAERYEEMVEFMEKVSNSLGSEELTVEERNLLSVAYKNVIGARRASWRIISSIEQKEESRGNEEHVNSIREYRSKIENELSKICDGILKLLDAKLIPSAASGDSKVFYLKMKGDYHRYLAEFKTGAERKEAAESTLTAYKAAQDIATTELAPTHPIRLGLALNFSVFYYEILNSPDRACNLAKQAFDEAIAELDTLGEESYKDSTLIMQLLRDNLTLWTSDMQGGSGGSGGSGGSGGSGGSGGSGGSGGSGGSMAVAPTAREENVYMAKLAEQAERYEEMVEFMEKVSNSLGSEELTVEERNLLSVAYKNVIGARRASWRIISSIEQKEESRGNEEHVNSIREYRSKIENELSKICDGILKLLDAKLIPSAASGDSKVFYLKMKGDYHRYLAEFKTGAERKEAAESTLTAYKAAQDIATTELAPTHPIRLGLALNFSVFYYEILNSPDRACNLAKQAFDEAIAELDTLGEESYKDSTLIMQLLRDNLTLWTSDMQGTSGGSGGSGGSGGSDDVTPCSMSGGSGGSENLYFQSGGSGGSGGSGGSGGSGGSGGSGGSGALSGGSTGTQHRYSTPHAFTFNTSSPSSEGSLSQRQRSTSTPNVH	35	–	–	–	–	–	–	–
dT14-3-3_biPKB, phosphorylated by PKB (protein, modifications not checked) MAVAPTAREENVYMAKLAEQAERYEEMVEFMEKVSNSLGSEELTVEERNLLSVAYKNVIGARRASWRIISSIEQKEESRGNEEHVNSIREYRSKIENELSKICDGILKLLDAKLIPSAASGDSKVFYLKMKGDYHRYLAEFKTGAERKEAAESTLTAYKAAQDIATTELAPTHPIRLGLALNFSVFYYEILNSPDRACNLAKQAFDEAIAELDTLGEESYKDSTLIMQLLRDNLTLWTSDMQGGSGGSGGSGGSGGSGGSGGSGGSGGSGGSMAVAPTAREENVYMAKLAEQAERYEEMVEFMEKVSNSLGSEELTVEERNLLSVAYKNVIGARRASWRIISSIEQKEESRGNEEHVNSIREYRSKIENELSKICDGILKLLDAKLIPSAASGDSKVFYLKMKGDYHRYLAEFKTGAERKEAAESTLTAYKAAQDIATTELAPTHPIRLGLALNFSVFYYEILNSPDRACNLAKQAFDEAIAELDTLGEESYKDSTLIMQLLRDNLTLWTSDMQGTSGGSGGSGGSGGSDDVTPCSMSGGSGGSENLYFQSGGSGGSGGSGGSGGSGGSGGSGGSGALSGGSTGTRARTSSFAEPGGSGGSGGSGSRARTSSFAEP	10	–	–	–	–	–	–	–
QGLLDALDLAS [mExoS peptide (C-terminal region of exoenzyme S)]	–	6.43	5.77	9.69	6.64	7.57	6.91	6.62

Reference: article PMC9295147 (2022)
